Measured values published in US20050260733A1, “Proteases and uses thereof” (WYETH, priority 2004, published 2005).

How the values were obtained:
Type in all cases: biochemical
[1] = target: bovine aggrecan (Bos taurus, UniProt P13608); test: Competitive inhibition ELISA for aggrecanase activity (MAb AGG-C1); conditions: bovine aggrecan digested 16 h at 37° C.; for amount of enzyme required to generate 45% inhibition in the competitive inhibition ELISA: then MAb AGG-C1 added
Description: Streptavidin-coated microtiter plates (Pierce, Rockford, Ill.) were coated with N-terminally biotinylated peptide aggc1 (b-aggc1) by incubating each well with 100 μl of b-aggc1 (100 ng/ml) for 1 h at room temperature. After washing 4 times with phosphate-buffered saline containing 0.01% Tween-20 (PBS-Tween), wells were blocked for 1 h at room temperature with 100 μl of PBS-Tween containing 2% BSA, followed by 4 washes with PBS-Tween.
In order to validate the neoepitope nature of MAb AGG-C1, competition mixtures (100 μl) comprised of MAb AGG-C1 (0.04 μg/ml) and 1.0-1000 nmol/ml of the synthetic peptides GGLPLPRNITEGE (SEQ ID NO:22), GGLPLPRNITEGE ARGSVILTVK-CONH2 (SEQ ID NO:23), undigested aggrecan, or ADAMTS-4 digested aggrecan were preincubated for 1 h at room temperature. Mixtures were then transferred to b-aggc1 coated wells. After a further incubation for 1 h at room temperature, the plates were washed 4 times with PBS-Tween then incubated for 1 h at room temperature with 100 μl of peroxidase-conjugated secondary goat anti-mouse IgG (1:10,000). Following 4 final washes with PBS-Tween, the wells were incubated with TMB 1 component microwell peroxidase substrate (BioFX Laboratories, Owings Mills, Md.). Color development was terminated by the addition of 0.18 M H2SO4, and the absorbance was monitored spectrophotometrically at 450 nm.
For the generation of a standard curve, bovine aggrecan (25 μg in 50 μl) was digested with ADAMTS-4 (0.001 ng-5 ng) for 16 h at 37° C. MAb AGG-C1 was then added to each digest (final antibody concentration of 0.04 μg/ml) and these mixtures were preincubated for 1 h at room temperature, followed by transfer to b-aggc1 coated plates and completion of the ELISA.
The standard curve was generated by incubating bovine aggrecan with increasing amounts of recombinant ADAMTS-4 for 16 h at 37° C. followed by addition of MAb AGG-C1 to each digest. Similar assays were performed to estimate the relative aggrecanase activity of ADAMTS-8.

[2] = target: T1, Bovine articular cartilage aggrecan (Glu373-Ala374 bond) (Bos taurus, UniProt P13608); test: Western blotting of enzyme-digested aggrecan with neoepitope antibodies (MAb BC-3, MAb AGG-C1, MAb BC-14)
T1 construct: Bovine articular cartilage aggrecan was incubated with purified ADAMTS-8 or ADAMTS-4; from tissue; host or cells: bovine articular cartilage
Description: Detailed procedures for Western blot analyses are set forth below. Bovine articular cartilage aggrecan was incubated with purified ADAMTS-8 or ADAMTS-4 for 16 h at 37° C. in 50 mM Tris, pH 7.3, containing 100 mM NaCl and 5 mM CaCl2. Digestion products were deglycosylated by incubation for 2 h at 37° C. in the presence of chondroitinase ABC (Seikagaku America, Falmouth, Mass.; 1 mU/μg aggrecan), keratanase (Seikagaku; 1 mU/μg aggrecan) and keratanase II (Seikagaku; 0.02 mU/μg aggrecan). Digestion products were separated on 4-12% Bis-Tris NuPAGE SDS PAGE gels (Invitrogen, Carlsbad, Calif.) and then electrophoretically transferred to nitrocellulose. Immunoreactive products were detected by Western blotting with MAb AGG-C1 (0.04 μg/ml) or MAb BC-3 (Caterson, et al., supra). Alkaline-phosphatase-conjugated secondary goat anti-mouse IgG (Promega Corp., Madison, Wis.; 1:7500) was subsequently incubated with the membranes, and NBT/BCIP substrate (Promega) was used to visualize immunoreactive bands. All antibody incubations were performed for 1 h at room temperature, and the immunoblots were incubated with the substrate for 5-15 min at room temperature to achieve optimum color development.

[3] = target: T2, α-2 macroglobulin (Homo sapiens, UniProt P01023); test: α2-macroglobulin assay of proteolytic activity; conditions: purified recombinant protein
T2 sequence (P01023 24-1474): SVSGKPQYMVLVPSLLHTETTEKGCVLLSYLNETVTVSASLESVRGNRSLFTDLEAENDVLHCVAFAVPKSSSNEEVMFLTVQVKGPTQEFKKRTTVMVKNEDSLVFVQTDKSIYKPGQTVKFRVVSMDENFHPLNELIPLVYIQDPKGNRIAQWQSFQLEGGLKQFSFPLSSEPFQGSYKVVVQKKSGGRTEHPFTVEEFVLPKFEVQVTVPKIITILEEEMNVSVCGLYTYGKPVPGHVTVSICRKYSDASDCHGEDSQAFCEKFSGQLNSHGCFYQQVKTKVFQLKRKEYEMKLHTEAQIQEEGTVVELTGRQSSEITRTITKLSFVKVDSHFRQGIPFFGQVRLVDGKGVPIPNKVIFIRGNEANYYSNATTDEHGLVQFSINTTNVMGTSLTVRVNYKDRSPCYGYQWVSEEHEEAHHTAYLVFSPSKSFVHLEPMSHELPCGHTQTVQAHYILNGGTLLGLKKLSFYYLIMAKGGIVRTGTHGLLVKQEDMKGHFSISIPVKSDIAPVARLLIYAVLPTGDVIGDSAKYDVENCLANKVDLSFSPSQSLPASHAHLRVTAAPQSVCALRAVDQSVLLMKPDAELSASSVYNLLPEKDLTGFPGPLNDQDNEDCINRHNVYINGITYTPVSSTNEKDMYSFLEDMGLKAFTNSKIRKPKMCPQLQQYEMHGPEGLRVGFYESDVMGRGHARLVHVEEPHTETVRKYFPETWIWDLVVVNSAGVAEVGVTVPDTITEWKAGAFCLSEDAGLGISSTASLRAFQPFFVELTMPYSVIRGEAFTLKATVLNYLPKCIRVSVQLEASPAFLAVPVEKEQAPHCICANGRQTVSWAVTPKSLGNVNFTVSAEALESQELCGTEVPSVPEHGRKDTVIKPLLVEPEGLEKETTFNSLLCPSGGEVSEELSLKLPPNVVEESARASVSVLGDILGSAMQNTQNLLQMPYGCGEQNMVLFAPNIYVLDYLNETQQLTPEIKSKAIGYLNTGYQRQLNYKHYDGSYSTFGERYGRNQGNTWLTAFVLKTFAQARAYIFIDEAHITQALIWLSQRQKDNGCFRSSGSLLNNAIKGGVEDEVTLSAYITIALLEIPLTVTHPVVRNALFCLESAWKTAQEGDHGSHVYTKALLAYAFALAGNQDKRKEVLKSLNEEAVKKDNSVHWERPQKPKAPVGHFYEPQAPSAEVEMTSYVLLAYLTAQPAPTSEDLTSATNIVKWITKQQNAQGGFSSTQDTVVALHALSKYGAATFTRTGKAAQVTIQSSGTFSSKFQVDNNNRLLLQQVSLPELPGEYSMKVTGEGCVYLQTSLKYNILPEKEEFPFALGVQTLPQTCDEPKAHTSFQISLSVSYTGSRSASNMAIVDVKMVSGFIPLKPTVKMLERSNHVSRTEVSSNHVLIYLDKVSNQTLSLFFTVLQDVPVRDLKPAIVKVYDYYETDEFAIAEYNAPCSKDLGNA

T1 sequence (P13608 17-2364): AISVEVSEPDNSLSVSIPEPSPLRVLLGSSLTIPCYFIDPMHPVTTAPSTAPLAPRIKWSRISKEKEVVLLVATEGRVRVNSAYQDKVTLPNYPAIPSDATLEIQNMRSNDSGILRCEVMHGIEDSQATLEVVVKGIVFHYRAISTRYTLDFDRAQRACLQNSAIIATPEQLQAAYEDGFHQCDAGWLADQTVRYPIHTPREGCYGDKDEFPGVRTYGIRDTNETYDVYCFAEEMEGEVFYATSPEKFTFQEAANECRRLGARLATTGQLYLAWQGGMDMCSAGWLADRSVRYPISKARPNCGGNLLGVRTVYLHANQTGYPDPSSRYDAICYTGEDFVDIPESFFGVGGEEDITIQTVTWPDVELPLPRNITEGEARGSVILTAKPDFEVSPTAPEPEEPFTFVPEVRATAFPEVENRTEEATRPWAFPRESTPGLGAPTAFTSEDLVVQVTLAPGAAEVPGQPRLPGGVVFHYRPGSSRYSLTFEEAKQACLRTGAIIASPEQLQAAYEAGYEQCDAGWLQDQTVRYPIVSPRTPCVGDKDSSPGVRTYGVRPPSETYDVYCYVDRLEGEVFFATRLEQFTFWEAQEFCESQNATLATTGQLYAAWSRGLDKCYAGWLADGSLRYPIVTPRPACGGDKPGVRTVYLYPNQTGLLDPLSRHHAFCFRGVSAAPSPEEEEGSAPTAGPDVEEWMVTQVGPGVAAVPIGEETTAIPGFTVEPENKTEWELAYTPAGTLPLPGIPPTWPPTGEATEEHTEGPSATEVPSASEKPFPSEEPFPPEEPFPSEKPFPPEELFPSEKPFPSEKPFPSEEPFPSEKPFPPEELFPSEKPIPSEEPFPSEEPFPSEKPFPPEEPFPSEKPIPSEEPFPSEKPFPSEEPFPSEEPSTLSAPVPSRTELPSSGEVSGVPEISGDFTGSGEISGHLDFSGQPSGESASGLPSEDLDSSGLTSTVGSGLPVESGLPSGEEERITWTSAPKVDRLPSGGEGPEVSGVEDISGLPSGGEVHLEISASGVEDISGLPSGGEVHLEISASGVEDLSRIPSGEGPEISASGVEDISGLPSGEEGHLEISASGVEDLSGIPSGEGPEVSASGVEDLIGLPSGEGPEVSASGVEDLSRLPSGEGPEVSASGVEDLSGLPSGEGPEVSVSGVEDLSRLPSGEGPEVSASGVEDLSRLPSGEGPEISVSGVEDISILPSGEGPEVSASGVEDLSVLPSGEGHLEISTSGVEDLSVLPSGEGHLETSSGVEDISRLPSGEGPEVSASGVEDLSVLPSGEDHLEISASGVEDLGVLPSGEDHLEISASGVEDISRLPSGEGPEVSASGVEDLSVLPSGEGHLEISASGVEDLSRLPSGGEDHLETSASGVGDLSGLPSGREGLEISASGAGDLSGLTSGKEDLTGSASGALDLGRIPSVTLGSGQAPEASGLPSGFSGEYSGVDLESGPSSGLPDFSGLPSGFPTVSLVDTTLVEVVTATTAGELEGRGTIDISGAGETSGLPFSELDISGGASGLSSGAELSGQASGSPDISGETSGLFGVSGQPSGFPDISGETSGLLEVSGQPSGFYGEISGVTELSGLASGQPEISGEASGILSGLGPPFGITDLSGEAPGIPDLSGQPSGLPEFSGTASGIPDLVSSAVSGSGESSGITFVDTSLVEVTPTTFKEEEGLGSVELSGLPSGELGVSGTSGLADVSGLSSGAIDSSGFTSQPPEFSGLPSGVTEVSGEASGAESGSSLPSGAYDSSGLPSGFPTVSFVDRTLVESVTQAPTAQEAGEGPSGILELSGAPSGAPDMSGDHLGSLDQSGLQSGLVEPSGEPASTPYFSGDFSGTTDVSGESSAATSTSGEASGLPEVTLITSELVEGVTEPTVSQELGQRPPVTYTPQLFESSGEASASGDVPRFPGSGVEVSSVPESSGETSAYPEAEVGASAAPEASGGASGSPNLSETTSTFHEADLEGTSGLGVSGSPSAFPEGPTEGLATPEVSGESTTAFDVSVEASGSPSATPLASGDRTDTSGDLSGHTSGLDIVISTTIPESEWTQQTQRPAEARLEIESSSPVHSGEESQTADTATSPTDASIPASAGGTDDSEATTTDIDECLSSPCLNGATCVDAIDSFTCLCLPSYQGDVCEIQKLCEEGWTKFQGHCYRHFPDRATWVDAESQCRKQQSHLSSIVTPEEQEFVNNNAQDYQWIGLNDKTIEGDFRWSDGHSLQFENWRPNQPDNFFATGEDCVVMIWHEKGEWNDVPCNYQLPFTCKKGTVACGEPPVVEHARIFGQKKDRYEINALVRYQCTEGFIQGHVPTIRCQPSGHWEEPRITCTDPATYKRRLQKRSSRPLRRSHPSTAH
Sequence of bovine aggrecan (P13608 17-2364): as above

B1: ADAMTS-8: Recombinant human full-length ADAMTS-8 with carboxy-terminal Strep-tag expressed in CHO cells; elution fraction holds pro- and mature forms (protein)
chain: RFVSEARFVETLLVADASMAAFYGADLQNHILTLMSVAARIYKHPSIKNSINLMVVKVLIVEDEKWGPEVSDNGGLTLRNFCNWQRRFNQPSDRHPEHYDTAILLTRQNFCGQEGLCDTLGVADIGTICDPNKSCSVIEDEGLQAAHTLAHELGHVLSMPHDDSKPCTRLFGPMGKHHVMAPLFVHLNQTLPWSPCSAMYLTELLDGGHGDCLLDAPRAALPLPTGLPGRMALYQLDQQCRQIFGPDFRHCPNTSAQDVCAQLWCHTDGAEPLCHTKNGSLPWADGTPCGPGHLCSEGSCLPEEEVERPKPVADGGWAPWGPWGECSRTCGGGVQFSHRECKDPEPQNGGRYCLGRRAKYQSCHTEECPPDGKSFREQQCEKYNAYNYTDMDGNLLQWVPKYAGVSPRDRCKLFCRARGRSEFKVFEAKVIDGTLCGPETLAICVRGQCVKAGCDHVVDSPRKLDKCGVCGGKGNSCRKVSGSLTPTNYGYNDIVTIPAGATNIDVKQRSHPGVQNDGNYLALKTADGQYLLNGNLAISAIEQDILVKGTILKYSGSIATLERLQSFRPLPEPLTVQLLTVPGEVFPPKVKYTFFVPNDVDFSMQSSKERATTNIIQPLLHAQWVLGDWSECSSTCGAGWQRRTVECRDPSGQASATCNKALKPEDAKPCESQLCPLGSGSAWSHPQFEK
- amount of enzyme required to generate 45% inhibition in the competitive inhibition ELISA [1]: 46.6 ± 4.8 pM
- cleavage site specificity of aggrecanase activity ([2]; BC-3 and AGG-C1 Western blots): specific for the Glu^373-Ala^374 site
- MAb BC-3 immunoreactive bands (cleavage at Glu373-Ala374) ([2]; MAb BC-3 Western blot, 16 h at 37° C.): increased in intensity with increasing amounts
- efficiency of cleaving cartilage aggrecan at Glu373-Ala374 compared with ADAMTS-4 ([2]; same Western blots, FIGS. 6A-6C): less efficient than ADAMTS4
- proteolytic activity by α2-macroglobulin assay [3]: verified

B2: ADAMTS-4: Recombinant ADAMTS-4 used for comparison, spontaneously truncated and lacking the spacer domain (protein)
chain: FASLSRFVETLVVADDKMAAFHGAGLKRYLLTVMAAAAKAFKHPSIRNPVSLVVTRLVILGSGEEGPQVGPSAAQTLRSFCAWQRGLNTPEDSDPDHFDTAILFTRQDLCGVSTCDTLGMADVGTVCDPARSCAIVEDDGLQSAFTAAHELGHVFNMLHDNSKPCISLNGPLSTSRHVMAPVMAHVDPEEPWSPCSARFITDFLDNGYGHCLLDKPEAPLHLPVTFPGKDYDADRQCQLTFGPDSRHCPQLPPPCAALWCSGHLNGHAMCQTKHSPWADGTPCGPAQACMGGRCLHMDQLQDFNIPQAGGWGPWGPWGDCSRTCGGGVQFSSRDCTRPVPRNGGKYCEGRRTRFRSCNTEDCPTGSALTFREEQCAAYNHRTDLFKSFPGPMDWVPRYTGVAPQDQCKLTCQAQALGYYYVLEPRVVDGTPCSPDSSSVCVQGRCIHAGCDRIIGSKKKFDKCMVCGGDGSGCSKQSGSFRK
- amount of enzyme required to generate aggrecan cleavage product giving 45% inhibition in the competitive inhibition ELISA ([1]; FIG. 7 standard curve): approximately 1 ng
- amount of enzyme required to generate 45% inhibition in the competitive inhibition ELISA [1]: 0.0135 pM

B3: C-terminally truncated ADAMTS-8: Recombinant ADAMTS-8 in which the C-terminal thrombospondin and spacer domains were deleted (protein)
chain: MLPAPAAPRWPPLLLLLLLLLLPLARGAPARPAAGGQASELVVPTRLPGSAGELALHLSAFGKGFVLRLAPDDSFLAPEFKIERLGGSGRATGGERGLRGCFFSGTVNGEPESLAAVSLCRGLSGSFLLDGEEFTIQPQGAGGSLAQPHRLQRWGPAGARPLPRGPEWEVETGEGQRQERGDHQEDSEEESQEEEAEGASEPPPPLGATSRTKRFVSEARFVETLLVADASMAAFYGADLQNHILTLMSVAARIYKHPSIKNSINLMVVKVLIVEDEKWGPEVSDNGGLTLRNFCNWQRRFNQPSDRHPEHYDTAILLTRQNFCGQEGLCDTLGVADIGTICDPNKSCSVIEDEGLQAAHTLAHELGHVLSMPHDDSKPCTRLFGPMGKHHVMAPLFVHLNQTLPWSPCSAMYLTELLDGGHGDCLLDAPRAALPLPTGLPGRMALYQLDQQCRQIFGPDFRHCPNTSAQDVCAQLWCHTDGAEPLCHTKNGSLPWADGTPCGPGHLCSEGSCLPEEEVERPKPVADGGWAPWGPWGECSRTCGGGVQFSHRECKDPEPQNGGRYCLGRRAKYQSCHTEECPPDGKSFREQQCEKYNAYNYTDMDGNLLQWVPKYAGVSPRDRCKLFCRARGRSEFKVFEAKVIDGTLCGPETLAICVRGQCVKAGCDHVVDSPRKLDKCGVCGGKGNSCRKVSGSLTPTNYGYNDIVTIPAGATNIDVKQRSHPGVQNDGNYLALKTADGQYLLNGNLAISAIEQDILVKGTILKYSGSIATLERLQSFRPLPEPLTVQLLTVPGEVFPPKVKYTFFVPNDVDFSMQSSKERATTNIIQPLLHAQWVLGDWSECSSTCGAGWQRRTVECRDPSGQASATCNKALKPEDAKPCESQLCPL
- activity on aggrecan substrate compared with full-length recombinant ADAMTS-8 ([2]; AGG-C1 Western blotting): no more active than full-length recombinant ADAMTS-8
- proteolytic activity by α2-macroglobulin assay [3]: active
